This passage reports protein stability index results from the supplement of paper PMC10567573.

B1: ZNF449 (parent)
chain: FQEYDTDCEVFRQRFRQFQYREAA
B2: ZNF649 (parent)
chain: YHTGKTPFVCPECGQPCSQKSGLI
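Note: lentivirally expressed fusions sorted by FACS into six bins by GFP to DsRed ratio, PSI derived from sequencing read proportions per bin multiplied by bin number.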

Variants of B1 are the subject of the first data set. Nature of the data set: protein stability index of a GFP-peptide fusion (GPS, HEK-293T) (PSI 1-6); higher = more stable. As to conditions: c terminus: a fixed tail appended.
FQEYDTDCEVFRQRFRQFQYREAP: the protein stability index came to 2.77.

On to FQEYDTDCEVFRQRFRQFQYREAH, for which the protein stability index came to 1.96.

FQEYDTDCEVFRQRFRQFQYREAI: the protein stability index was 2.08.

Regarding FQEYDTDCEVFRQRFRQFQYREAS, the protein stability index was found to be 2.55.

As for FQEYDTDCEVFRQRFRQFQYREAR, the protein stability index is 3.04.

As to FQEYDTDCEVFRQRFRQFQYREAV, the protein stability index turned out to be 2.13.

As to FQEYDTDCEVFRQRFRQFQYREAN, the protein stability index turned out to be 2.65.

As for FQEYDTDCEVFRQRFRQFQYREAL, the protein stability index is 2.64.

Take FQEYDTDCEVFRQRFRQFQYREAM: the protein stability index was found to be 2.13.

For the variant FQEYDTDCEVFRQRFRQFQYREAW, the protein stability index worked out at 1.93.

Consider FQEYDTDCEVFRQRFRQFQYREAT, for which the protein stability index is 2.35.

Regarding FQEYDTDCEVFRQRFRQFQYREAY, the protein stability index was 2.33.

Take FQEYDTDCEVFRQRFRQFQYREAQ: the protein stability index amounted to 3.13.

For FQEYDTDCEVFRQRFRQFQYREAK, the protein stability index worked out at 2.76.

In the next data set the parent is B2. The data set is described as above. As to conditions: c terminus: a fixed tail appended.
YHTGKTPFVCPECGQRCSQKSGLI: the protein stability index is 1.54.

Turning to YHTGKTPFVCPECGQECSQKSGLI, the protein stability index is 2.79.

For YHTGKTPFVCPECGQFCSQKSGLI, the protein stability index turned out to be 2.1.

On to YHTGKTPFVCPECGQTCSQKSGLI, for which the protein stability index turned out to be 1.34.

In the case of YHTGKTPFVCPECGQMCSQKSGLI, the protein stability index was determined as 1.86.

With YHTGKTPFVCPECGQVCSQKSGLI, the protein stability index turned out to be 2.44.

Consider YHTGKTPFVCPECGQACSQKSGLI, for which the protein stability index came out at 2.79.

On to YHTGKTPFVCPECGQQCSQKSGLI, for which the protein stability index turned out to be 2.37.

In the case of YHTGKTPFVCPECGQCCSQKSGLI, the protein stability index came out at 4.29.

Consider YHTGKTPFVSPECGQPCSQKSGLI, for which the protein stability index came to 2.85.

As for YHTGKTPFVGPECGQPCSQKSGLI, the protein stability index amounted to 2.31.

Take YHTGKTPFVVPECGQPCSQKSGLI: the protein stability index was determined as 1.81.

As to YHTGKTPFVTPECGQPCSQKSGLI, the protein stability index was 2.37.

YHTGKTPFVQPECGQPCSQKSGLI: the protein stability index is 1.27.

With YHTGKTPFVDPECGQPCSQKSGLI, the protein stability index is 1.61.

In the case of YHTGKTPFVKPECGQPCSQKSGLI, the protein stability index came out at 1.76.

YHTGKTPFVYPECGQPCSQKSGLI: the protein stability index amounted to 2.29.

As to YHTGKIPFVCPECGQPCSQKSGLI, the protein stability index was found to be 2.22.

YHTGKWPFVCPECGQPCSQKSGLI: the protein stability index is 1.96.

YHTGKQPFVCPECGQPCSQKSGLI: the protein stability index came out at 2.96.

Turning to YHTGKGPFVCPECGQPCSQKSGLI, the protein stability index stood at 1.71.

Regarding YHTGKPPFVCPECGQPCSQKSGLI, the protein stability index came to 2.19.

As for YHTGKMPFVCPECGQPCSQKSGLI, the protein stability index worked out at 1.68.

For YHTGKFPFVCPECGQPCSQKSGLI, the protein stability index came out at 2.42.

For YHTGKTPFVCPECGQPCSQPSGLI, the protein stability index came to 2.1.

Take YHTGKTPFVCPECGQPCSQVSGLI: the protein stability index stood at 1.43.

With YHTGKTPFVCPECGQPCSQYSGLI, the protein stability index was 3.04.

Consider YHTGKTPFVCPECGQPCSQASGLI, for which the protein stability index was determined as 2.05.

As for YHTGKTPFVCPECGQPCSQQSGLI, the protein stability index was 3.76.

In the case of YHTGKTPFVCPECGQPCSQNSGLI, the protein stability index amounted to 1.07.

YHTGKTPFVCPECGQPCSQISGLI: the protein stability index is 3.23.

In the case of YHTGKTPFVCPECGQPCSQESGLI, the protein stability index was 1.35.

YHTGKTPFVCPECGQPCSQSSGLI: the protein stability index is 2.53.

As for YHTGKTPFVCPECGQPQSQKSGLI, the protein stability index was 1.96.

Regarding YHTGKTPFVCPECGQPLSQKSGLI, the protein stability index was found to be 1.66.

With YHTGKTPFVCPECGQPSSQKSGLI, the protein stability index was 2.81.

For the variant YHTGKTPFVCPECGQPFSQKSGLI, the protein stability index amounted to 1.59.

In the case of YHTGKTPFVCPECGQPASQKSGLI, the protein stability index stood at 3.38.

Consider YHTGKTPFVCPECGQPPSQKSGLI, for which the protein stability index came out at 2.54.

Turning to YHTGKTPFVCPECGQPTSQKSGLI, the protein stability index is 2.04.

For YHTGKTPFECPECGQPCSQKSGLI, the protein stability index was found to be 1.61.

With YHTGKTPFTCPECGQPCSQKSGLI, the protein stability index came out at 2.43.

In the case of YHTGFTPFVCPECGQPCSQKSGLI, the protein stability index stood at 1.88.

YHTGQTPFVCPECGQPCSQKSGLI: the protein stability index was found to be 1.86.

In the case of YHTGATPFVCPECGQPCSQKSGLI, the protein stability index was 1.62.

As to YHTGMTPFVCPECGQPCSQKSGLI, the protein stability index is 2.44.

Take YHTGNTPFVCPECGQPCSQKSGLI: the protein stability index stood at 1.81.

Take DHTGKTPFVCPECGQPCSQKSGLI: the protein stability index was determined as 3.98.

As to AHTGKTPFVCPECGQPCSQKSGLI, the protein stability index is 3.92.

Consider KHTGKTPFVCPECGQPCSQKSGLI, for which the protein stability index was found to be 2.72.

Consider CHTGKTPFVCPECGQPCSQKSGLI, for which the protein stability index was determined as 3.52.

Turning to SHTGKTPFVCPECGQPCSQKSGLI, the protein stability index was found to be 3.72.

On to LHTGKTPFVCPECGQPCSQKSGLI, for which the protein stability index amounted to 2.51.

In the case of RHTGKTPFVCPECGQPCSQKSGLI, the protein stability index came out at 2.69.

Consider GHTGKTPFVCPECGQPCSQKSGLI, for which the protein stability index came out at 3.8.

For MHTGKTPFVCPECGQPCSQKSGLI, the protein stability index was 1.65.

In the case of HHTGKTPFVCPECGQPCSQKSGLI, the protein stability index came out at 3.46.

For IHTGKTPFVCPECGQPCSQKSGLI, the protein stability index amounted to 2.69.

Regarding PHTGKTPFVCPECGQPCSQKSGLI, the protein stability index worked out at 3.28.

In the case of YHTGKTPFVCPECGQPCSQKSGRI, the protein stability index is 1.92.

Turning to YHTGKTPFVCPECGQPCSQKSGSI, the protein stability index came out at 2.72.

YHTGKTPFVCPECGQPCSQKSGAI: the protein stability index is 1.59.

Take YHTGKTPFVCPECGQPCSQKSGQI: the protein stability index was found to be 3.01.

Turning to YHTGKTPFVCPECGQPCSQKSGKI, the protein stability index was determined as 2.56.

With YHTGKTPFVCPECGQPCSQKSGWI, the protein stability index turned out to be 1.16.

In the case of YHTGKTPFVCPECGQPCSQKSGCI, the protein stability index was found to be 2.83.

With YHTGKTPFVCPECGQPCSQKSGNI, the protein stability index was 3.38.

Take YHTGKTPFVCPECGQPCSQKSGTI: the protein stability index is 2.2.

Consider YHTGKTPFVCPECGQPCSQKSGMI, for which the protein stability index turned out to be 1.46.

Take YHTGKTPFVCPECGQPCSQKQGLI: the protein stability index worked out at 1.56.

As to YHTGKTPFVCPECGQPCSQKRGLI, the protein stability index amounted to 1.92.

With YHTGKTPFVCPECGQPCSQKVGLI, the protein stability index turned out to be 1.6.

Consider YHTGKTPFVCPECGQPCSQKCGLI, for which the protein stability index was found to be 2.32.

YHTGKTPFVCPECGQPCSQKYGLI: the protein stability index was 2.56.

As for YHTGKTPFVCPECGQPCSQKTGLI, the protein stability index was 1.96.

Regarding YHTGKTPFVCPECGQPCSQKKGLI, the protein stability index came out at 1.4.

On to YHTGKTPFVCPECGQPCYQKSGLI, for which the protein stability index was found to be 2.4.

As to YHTGKTPFVCPECGQPCFQKSGLI, the protein stability index was found to be 2.27.

For YHTGKTPFVCPECGQPCQQKSGLI, the protein stability index was determined as 1.49.

Regarding YHTGKTPFVCPECGQPCGQKSGLI, the protein stability index was found to be 1.43.
